Test system: Escherichia coli TOP10
Experiment: shrunken log2 fold change of peptide-encoding DNA abundance (4.5 h post-induction vs induction); higher = less antimicrobial activity (less host growth inhibition)
Details: time post-induction: 4.5 h; library: site-saturation at positions 5, 18, 19, 20
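Note: peptides expressed intracellularly from a pBAD plasmid library in pooled LB shake-flask culture, induced with 0.3% L-arabinose, DNA abundance read by NGS, three biological replicates, DESeq2 with apeglm shrinkage.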

| Sequence | shrunken log2 fold change |
| --- | --- |
| RRIRLRPPRLPRPRPRPYSPPRP | -0.299 |
| RRIRWRPPRLPRPRPRPQQKPRP | -0.0581 |
| RRIRKRPPRLPRPRPRPGMQPRP | -0.00459 |
| RRIRLRPPRLPRPRPRPYSEPRP | -1.71 |
| RRIRMRPPRLPRPRPRPWMTPRP | 0.0698 |
| RRIRTRPPRLPRPRPRPPWMPRP | -0.00314 |
| RRIRWRPPRLPRPRPRPRDFPRP | -0.031 |
| RRIRARPPRLPRPRPRPWPAPRP | 0.17 |
| RRIRNRPPRLPRPRPRPERFPRP | 0.128 |
| RRIRRRPPRLPRPRPRPQDCPRP | -0.151 |
| RRIRQRPPRLPRPRPRPFVYPRP | -0.755 |
| RRIRMRPPRLPRPRPRPEYTPRP | -0.0269 |
| RRIRHRPPRLPRPRPRPGPSPRP | 0.188 |
| RRIRERPPRLPRPRPRPCNPPRP | -0.442 |
| RRIRYRPPRLPRPRPRPSVTPRP | -0.421 |
| RRIRCRPPRLPRPRPRPQSQPRP | 0.131 |
| RRIRSRPPRLPRPRPRPQMTPRP | -0.0755 |
| RRIRIRPPRLPRPRPRPPVWPRP | 0.187 |
| RRIRHRPPRLPRPRPRPYRRPRP | -0.142 |
| RRIRNRPPRLPRPRPRPSQWPRP | -0.194 |
| RRIRIRPPRLPRPRPRPYRPPRP | -0.0527 |
| RRIRCRPPRLPRPRPRPQVGPRP | -0.0906 |
| RRIRFRPPRLPRPRPRPYWKPRP | -0.0922 |
| RRIRHRPPRLPRPRPRPVWMPRP | -0.243 |
| RRIRYRPPRLPRPRPRPRHKPRP | -0.208 |

| Sequence | shrunken log2 fold change |
| --- | --- |
| RRIRSRPPRLPRPRPRPSNTPRP | -0.748 |
| RRIRPRPPRLPRPRPRPVWEPRP | -0.126 |
| RRIRSRPPRLPRPRPRPAMYPRP | -0.184 |
| RRIRLRPPRLPRPRPRPWFNPRP | -0.388 |
| RRIRFRPPRLPRPRPRPLTAPRP | -0.0807 |
| RRIRARPPRLPRPRPRPEWEPRP | 0.877 |
| RRIRDRPPRLPRPRPRPQWYPRP | -0.45 |
| RRIRFRPPRLPRPRPRPFNSPRP | -0.0372 |
| RRIRTRPPRLPRPRPRPMDRPRP | -0.01 |
| RRIRIRPPRLPRPRPRPEWEPRP | 0.068 |
| RRIRIRPPRLPRPRPRPSIQPRP | -0.252 |
| RRIRQRPPRLPRPRPRPTYRPRP | 0.06 |
| RRIRERPPRLPRPRPRPNQWPRP | 0.062 |
| RRIRLRPPRLPRPRPRPSHYPRP | -0.367 |
| RRIRSRPPRLPRPRPRPKRYPRP | -0.163 |
| RRIRARPPRLPRPRPRPTVGPRP | 0.794 |
| RRIRNRPPRLPRPRPRPYFRPRP | -0.766 |
| RRIRHRPPRLPRPRPRPWYLPRP | -0.748 |
| RRIRNRPPRLPRPRPRPKAHPRP | 0.18 |
| RRIRWRPPRLPRPRPRPLSLPRP | 0.0175 |
| RRIRWRPPRLPRPRPRPQTKPRP | 0.434 |
| RRIRHRPPRLPRPRPRPPVHPRP | 0.00286 |
| RRIRYRPPRLPRPRPRPDHHPRP | -0.0423 |
| RRIRGRPPRLPRPRPRPKKAPRP | -0.0191 |
| RRIRKRPPRLPRPRPRPQFPPRP | -0.00782 |

| Sequence | shrunken log2 fold change |
| --- | --- |
| RRIRQRPPRLPRPRPRPRSSPRP | 0.0377 |
| RRIRGRPPRLPRPRPRPDGIPRP | -0.0219 |
| RRIRSRPPRLPRPRPRPLIEPRP | -0.06 |
| RRIRTRPPRLPRPRPRPISKPRP | -0.17 |
| RRIRDRPPRLPRPRPRPFVLPRP | 0.045 |
| RRIRSRPPRLPRPRPRPNALPRP | -0.0803 |
| RRIRKRPPRLPRPRPRPNGYPRP | 0.0664 |
| RRIRYRPPRLPRPRPRPGWSPRP | -0.135 |
| RRIRHRPPRLPRPRPRPTCWPRP | -0.0322 |
| RRIRFRPPRLPRPRPRPDLVPRP | -0.0465 |
| RRIRLRPPRLPRPRPRPAMRPRP | 0.28 |
| RRIRVRPPRLPRPRPRPDCIPRP | -0.161 |
| RRIRERPPRLPRPRPRPAVMPRP | 0.0088 |
| RRIRIRPPRLPRPRPRPFHWPRP | 0.0373 |
| RRIRIRPPRLPRPRPRPGRRPRP | 0.18 |
| RRIRFRPPRLPRPRPRPCAFPRP | -0.393 |
| RRIRLRPPRLPRPRPRPGYFPRP | -0.347 |
| RRIRERPPRLPRPRPRPTTAPRP | 0.0732 |
| RRIRIRPPRLPRPRPRPGFRPRP | 0.0935 |
| RRIRDRPPRLPRPRPRPMMKPRP | 0.157 |
| RRIRSRPPRLPRPRPRPVCMPRP | -0.053 |
| RRIRARPPRLPRPRPRPCTKPRP | 0.143 |
| RRIRPRPPRLPRPRPRPNGWPRP | 0.296 |
| RRIRSRPPRLPRPRPRPTQKPRP | 0.375 |
| RRIRFRPPRLPRPRPRPMKVPRP | -0.344 |

| Sequence | shrunken log2 fold change |
| --- | --- |
| RRIRARPPRLPRPRPRPAGCPRP | 0.648 |
| RRIRDRPPRLPRPRPRPKCSPRP | 0.243 |
| RRIRGRPPRLPRPRPRPEYIPRP | 0.252 |
| RRIRRRPPRLPRPRPRPMVNPRP | -0.0292 |
| RRIRSRPPRLPRPRPRPYFEPRP | -0.359 |
| RRIRERPPRLPRPRPRPIKFPRP | -0.0529 |
| RRIRVRPPRLPRPRPRPITGPRP | -0.00538 |
| RRIRERPPRLPRPRPRPLNHPRP | -0.443 |
| RRIRIRPPRLPRPRPRPTFPPRP | -0.316 |
| RRIRSRPPRLPRPRPRPTEFPRP | 0.153 |
| RRIRDRPPRLPRPRPRPNNKPRP | -0.682 |
| RRIRRRPPRLPRPRPRPKGKPRP | 0.195 |
| RRIRSRPPRLPRPRPRPNHQPRP | -0.139 |
| RRIRGRPPRLPRPRPRPVFIPRP | 0.0618 |
| RRIRERPPRLPRPRPRPCMWPRP | -0.233 |
| RRIRLRPPRLPRPRPRPPSDPRP | 0.432 |
| RRIRPRPPRLPRPRPRPYYSPRP | -0.246 |
| RRIRKRPPRLPRPRPRPMTIPRP | -0.191 |
| RRIRVRPPRLPRPRPRPKLFPRP | 0.0793 |
| RRIRSRPPRLPRPRPRPMQIPRP | 0.141 |
| RRIRFRPPRLPRPRPRPERPPRP | 0.415 |
| RRIRARPPRLPRPRPRPHCGPRP | 0.507 |
| RRIRNRPPRLPRPRPRPEYMPRP | -0.0146 |
| RRIRFRPPRLPRPRPRPETIPRP | -0.103 |
| RRIRTRPPRLPRPRPRPCETPRP | 0.0184 |

| Sequence | shrunken log2 fold change |
| --- | --- |
| RRIRIRPPRLPRPRPRPYVYPRP | -0.144 |
| RRIRFRPPRLPRPRPRPKKQPRP | 0.0157 |
| RRIRMRPPRLPRPRPRPKGDPRP | 2.08 |
| RRIRCRPPRLPRPRPRPINNPRP | -0.633 |
| RRIRQRPPRLPRPRPRPCLFPRP | -0.268 |
| RRIRNRPPRLPRPRPRPTALPRP | -0.18 |
| RRIRIRPPRLPRPRPRPADTPRP | -0.347 |
| RRIRTRPPRLPRPRPRPLVCPRP | 0.0682 |
| RRIRMRPPRLPRPRPRPYEWPRP | -0.0304 |
| RRIRDRPPRLPRPRPRPYRLPRP | -0.0389 |
| RRIRVRPPRLPRPRPRPKGPPRP | 0.36 |
| RRIRYRPPRLPRPRPRPLCPPRP | -0.397 |
| RRIRARPPRLPRPRPRPMTQPRP | 0.249 |
| RRIRLRPPRLPRPRPRPVDYPRP | -0.434 |
| RRIRIRPPRLPRPRPRPCQLPRP | -0.812 |
| RRIRHRPPRLPRPRPRPWLYPRP | -0.217 |
| RRIRSRPPRLPRPRPRPPTHPRP | 0.197 |
| RRIRMRPPRLPRPRPRPLGAPRP | 1.25 |
| RRIRLRPPRLPRPRPRPNNTPRP | -0.687 |
| RRIRGRPPRLPRPRPRPWVHPRP | -0.0245 |
| RRIRWRPPRLPRPRPRPCPEPRP | 0.0311 |
| RRIRCRPPRLPRPRPRPYRGPRP | -0.992 |
| RRIRLRPPRLPRPRPRPYLSPRP | -0.0116 |
| RRIRHRPPRLPRPRPRPYFDPRP | -0.422 |
| RRIRRRPPRLPRPRPRPPEIPRP | -0.17 |

| Sequence | shrunken log2 fold change |
| --- | --- |
| RRIRSRPPRLPRPRPRPPCGPRP | 0.182 |
| RRIRYRPPRLPRPRPRPYKHPRP | -1.18 |
| RRIRERPPRLPRPRPRPTMEPRP | -0.116 |
| RRIRRRPPRLPRPRPRPDYQPRP | 0.0952 |
| RRIRSRPPRLPRPRPRPDIHPRP | -1.3 |
| RRIRQRPPRLPRPRPRPNCNPRP | -0.882 |
| RRIRVRPPRLPRPRPRPRKKPRP | 0.0671 |
| RRIRHRPPRLPRPRPRPGWQPRP | 0.33 |
| RRIRKRPPRLPRPRPRPGNIPRP | -0.0196 |
| RRIRGRPPRLPRPRPRPMNAPRP | 0.493 |
| RRIRTRPPRLPRPRPRPGMKPRP | -0.0344 |
| RRIRIRPPRLPRPRPRPMHCPRP | -0.00192 |
| RRIRMRPPRLPRPRPRPRCDPRP | 0.397 |
| RRIRRRPPRLPRPRPRPCFDPRP | 0.1 |
| RRIRLRPPRLPRPRPRPFEYPRP | -0.0121 |
| RRIRERPPRLPRPRPRPAKCPRP | -0.237 |
| RRIRMRPPRLPRPRPRPRLYPRP | 0.212 |
| RRIRVRPPRLPRPRPRPAWNPRP | 0.219 |
| RRIRPRPPRLPRPRPRPDNVPRP | 0.115 |
| RRIRLRPPRLPRPRPRPGKMPRP | -0.0508 |
| RRIRRRPPRLPRPRPRPYSQPRP | -0.032 |
| RRIRRRPPRLPRPRPRPYLHPRP | -0.307 |
| RRIRFRPPRLPRPRPRPGCMPRP | -0.178 |
| RRIRVRPPRLPRPRPRPLASPRP | -0.214 |
| RRIRPRPPRLPRPRPRPSCLPRP | -0.317 |

Source: the supplement of paper PMC9112550, “Optimization of the antimicrobial peptide Bac7 by deep mutational scanning” (BMC Biology, 2022)
